Source: patent publication US20150246947A1 (BAXALTA, published 2015)
Values joined by “and” are separate entries in the source; they are usually repeats but may differ in a detail not shown here. Identical values can stand only once. Non-standard residues stand in square brackets, D forms with d.

T1: human Protein S (human, UniProt P07225 42-676)
T1 construct: Called 'full length Protein S' / 'human full-length Protein S'; It was coated on plates (ELISA), Eu-labeled (LANCE) or immobilized on a chip (Biacore); also called PS; full length Protein S
T1 sequence: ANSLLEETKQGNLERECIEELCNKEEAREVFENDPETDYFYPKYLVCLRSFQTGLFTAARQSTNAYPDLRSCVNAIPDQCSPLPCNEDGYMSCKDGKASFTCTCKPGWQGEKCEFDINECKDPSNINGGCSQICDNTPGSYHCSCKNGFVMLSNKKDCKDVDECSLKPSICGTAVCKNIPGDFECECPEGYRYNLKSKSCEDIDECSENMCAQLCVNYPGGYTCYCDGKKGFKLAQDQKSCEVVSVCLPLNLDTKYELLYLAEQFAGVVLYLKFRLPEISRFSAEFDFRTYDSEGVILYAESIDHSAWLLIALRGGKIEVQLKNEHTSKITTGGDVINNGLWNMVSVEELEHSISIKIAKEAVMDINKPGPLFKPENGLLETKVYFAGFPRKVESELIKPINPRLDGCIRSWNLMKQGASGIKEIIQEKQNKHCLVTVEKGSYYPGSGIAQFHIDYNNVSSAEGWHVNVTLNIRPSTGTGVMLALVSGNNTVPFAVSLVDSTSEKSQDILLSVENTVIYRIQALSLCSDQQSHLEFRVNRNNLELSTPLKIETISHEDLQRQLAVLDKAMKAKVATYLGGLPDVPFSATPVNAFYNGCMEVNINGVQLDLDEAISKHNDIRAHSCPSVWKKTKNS

T2: human Protein S (UniProt P07225 42-676)
T2 chain: T1 sequence

B1: JBS3263 (peptide)
peptide: Ac-EYIVTAGWYDYNKDIYYEFK-NH2
B2: JBS3283 (peptide)
peptide: Ac-AIYVTAGWYDYNNDTYYEFT-NH2
B3: JBS3321 (peptide)
peptide: Ac-EYYVSAGWYDYNTDTYYEFEC-NH2
modifications: not fully specified (residue 21)
notes: Tetramer of JBS3319 monomers with a four arm 10 kD PEG moiety
B4: JBS3306 (peptide)
peptide: Ac-HWYVSAGWYDYNEDKYYEFE-NH2
B5: JBS2650 (peptide)
chain: Ac-TGSVSAGWYDYNFDHYREFT-NH2
B6: JBS3222 (peptide)
chain: Ac-EGYVSAGWYDYNTDTYYEFE-NH2
B7: JBS2628 (peptide)
chain: Ac-PGHVSAGWYDYNFDHYREFT-NH2
B8: JBS2847 (peptide)
chain: Ac-TGLVSAGWYDYNFDQYREFT-NH2
B9: JBS2752 (peptide)
chain: Ac-TGLVSAGWYDYNFDHYEEFT-NH2
B10: JBS2680 (peptide)
chain: Ac-TAHVSAGWYDYNFDLYREFT-NH2
B11: JBS2683 (peptide)
chain: Ac-GAHVSAGWYDYNFDLYREFT-NH2
B12: JBS2770 (peptide)
chain: Ac-TGLVSAGWYDYNFDHYHEFT-NH2
B13: JBS2682 (peptide)
chain: Ac-GGHVSAGWYDYNFDLYREFT-NH2
B14: JBS2663 (peptide)
chain: Ac-TGHVSAGWYDYNFDHYSEFT-NH2
B15: JBS2684 (peptide)
chain: Ac-GGHVSAGWYDYNADHYREFT-NH2
B16: JBS2794 (peptide)
chain: Ac-MGLVSAGWYDYNFDHYREFT-NH2
B17: JBS2806 (peptide)
chain: Ac-TGLVSAGWYDYNMDHYREFT-NH2
B18: JBS2823 (peptide)
chain: Ac-TGLVSAGWYNYNFDHYREFT-NH2
B19: JBS2610 (peptide)
chain: Ac-FGHVSAGWYDYNFDHYREFT-NH2
B20: JBS2825 (peptide)
chain: Ac-TGLVSAGWYDYNNDHYREFT-NH2
B21: JBS2681 (peptide)
chain: Ac-GAHVSAGWYDYNFDHYREFT-NH2
B22: JBS2611 (peptide)
chain: Ac-TFHVSAGWYDYNFDHYREFT-NH2
B23: JBS2903 (peptide)
chain: Ac-TGLVSAGWYDYNFDVYREFT-NH2
B24: JBS2678 (peptide)
chain: Ac-TGHVSAGWYDYNFDHYRE-NH2
B25: JBS2679 (peptide)
chain: Ac-TAHVSAGWYDYNFDDYREFT-NH2
B26: JBS2734 (peptide)
chain: Ac-TGLVSAGWYDYN[dA]DHYREFT-NH2
SMILES: CC(=O)N[C@H](C(=O)NCC(=O)N[C@@H](CC(C)C)C(=O)N[C@H](C(=O)N[C@@H](CO)C(=O)N[C@@H](C)C(=O)NCC(=O)N[C@@H](Cc1c[nH]c2ccccc12)C(=O)N[C@@H](Cc1ccc(O)cc1)C(=O)N[C@@H](CC(=O)O)C(=O)N[C@@H](Cc1ccc(O)cc1)C(=O)N[C@@H](CC(N)=O)C(=O)N[C@H](C)C(=O)N[C@@H](CC(=O)O)C(=O)N[C@@H](Cc1c[nH]cn1)C(=O)N[C@@H](Cc1ccc(O)cc1)C(=O)N[C@@H](CCCNC(=N)N)C(=O)N[C@@H](CCC(=O)O)C(=O)N[C@@H](Cc1ccccc1)C(=O)N[C@H](C(N)=O)[C@@H](C)O)C(C)C)[C@@H](C)O
B27: JBS2845 (peptide)
chain: Ac-TGLVSAGWYDNNFDHYREFT-NH2
B28: JBS2612 (peptide)
chain: Ac-TGFVSAGWYDYNFDHYREFT-NH2
B29: JBS2676 (peptide)
chain: Ac-GGHVSAGWYDYNKDHYREFT-NH2
B30: JBS2570 (peptide)
chain: Ac-LGHVSAGWYDYNFDHYREFT-NH2
B31: JBS2750 (peptide)
chain: Ac-TGLVSAGWYDYNFDEYREFT-NH2
B32: JBS2649 (peptide)
chain: Ac-TSHVSAGWYDYNFDHYREFT-NH2
B33: JBS2788 (peptide)
chain: Ac-TGLVSAGWYDYNFDIYREFT-NH2
B34: JBS2887 (peptide)
chain: Ac-TGLVSAGWYDYNFDHYTEFT-NH2
B35: JBS2645 (peptide)
chain: Ac-TGHVSAGWYDYNFDHYRPFT-NH2
B36: JBS2623 (peptide)
chain: Ac-TGHVSAGWYDYNFDFYREFT-NH2
B37: JBS2648 (peptide)
chain: Ac-SGHVSAGWYDYNFDHYREFT-NH2
B38: JBS2790 (peptide)
chain: Ac-TGLVSAGWYDYNFDHYIEFT-NH2
B39: JBS2590 (peptide)
chain: Ac-KGHVSAGWYDYNFDHYREFT-NH2
B40: JBS2924 (peptide)
chain: Ac-TGLVSAGWYDYNFDHYWEFT-NH2
B41: JBS2905 (peptide)
chain: Ac-TGLVSAGWYDYNFDHYVEFT-NH2

The binders below were run against T1, human Protein S (assay: Biacore (SPR), Protein S immobilized).
Method in brief: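 Kd was derived from kon and koff, which came from fitting surface plasmon resonance sensorgrams to a Langmuir binding model. Measurements used a Biacore 3000 or Biacore T200 with 1000 RU of human full-length Protein S on a […] chip, and peptides were injected at various concentrations in HBS-buffer with 3 mM CaCl₂ and 1% DMSO.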

Binder	Kd [nM]	koff [s⁻¹]	kon [M⁻¹ s⁻¹]
B1	0.4	0.000264	629000
B2	0.4	0.000322	735000
B3	0.02	3.88e-05	1.58e+06
B4	0.4	0.000402	1e+06

Biological target: T2, human Protein S
Assay: LANCE competition
Method in brief: (§1)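 A homogeneous time-resolved FRET (LANCE) competition format paired europium-labelled Protein S and ULight-labelled streptavidin with a biotinylated tracer peptide, against which unlabelled test peptide was titrated three-fold. With final concentrations of 10 nM Protein S, 100 nM streptavidin and 300 nM tracer in 50 µl, or 2 nM Protein S and 60 nM tracer when a Tecan F500 was used, samples stood 1 hour at room temperature. Emission was read at 665 nm with excitation at 340 nm. Non-linear regression of these signals gave the IC50.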

Binder	IC50 [nM]
B1	1.2
B2	0.9
B3	0.7
B4	0.8

Biological target: T2, human Protein S
Assay: LANCE competition
Remark: another data set of the same source
Method in brief: as §1

Binder	IC50
B5	25.1 nM
B6	1.5 nM
B7	27 nM
B8	5.4 nM
B9	6.8 nM
B10	6 nM
B11	5.6 nM
B12	5.2 nM
B13	7.5 nM
B14	28.4 nM
B15	12.5 nM
B16	4 nM and 5.6 nM
B17	5.7 nM
B18	13.5 nM
B19	15.5 nM
B20	4.4 nM
B21	18.7 nM
B22	12.5 nM
B23	3.1 nM

Binder	IC50
B24	1810 nM
B25	30 nM
B26	792 nM
B27	8.4 nM
B28	17 nM
B29	11.6 nM
B30	18.8 nM
B31	3.6 nM
B32	31.8 nM
B33	2.2 nM
B34	4 nM
B35	9.4 nM
B36	15.1 nM
B37	18.6 nM
B38	3.4 nM
B39	11.4 nM
B40	3.6 nM
B41	5.9 nM
